Measurements reported in the RNAGym collection of RNA variant scans (doi:10.1073/pnas.2313332121).

B1: TPR t1 (parent)
chain: GACCAAUCUGCCCUCAGAGCUCGAGAACAUCUUCGGAUGCAGAGGAGGCAGGCUUCGGUGGCGCGAUAGCGCCAACGUCCUCAACCUCCAAUGCAUCCCACCACAUGAUGAUGCCUGAAGAGCCUUGGUUUUUUG

Variants of: B1
Test: polymerase ribozyme fitness, log enrichment relative to wild type (log ratio); higher = more active; in vitro selection for triplet polymerase activity
Procedure, shortened: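 For each subunit of a heterodimeric triplet polymerase ribozyme, a mutant library was built by PCR and transcribed, then taken through a single in vitro selection round in triplicate. Selection involved annealing to a biotinylated primer, the partner subunit and triplets, incubation frozen at −7 °C, gel excision of extended constructs, capture on streptavidin beads and RT-PCR. Genotypes were retained after Illumina sequencing of inputs and outputs only with ≥10 input reads and ≥1 read in each output. Fitness is defined as the logarithm of a genotype's enrichment relative to wild-type enrichment, using inverse-variance-weighted averages across replicates, with the logarithm taken to base 2.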

Going from U78G C98U to C73U A90G A121C, the “polymerase ribozyme fitness (log ratio)” value rises from -0.646 to 2.05.

First: C79G U131G
Second: C79U U129C
The “polymerase ribozyme fitness (log ratio)” value of the first is lower: -1.06 for the first, 0.161 for the second.

G77C C85A and A74C C79A U125A are within 0.2 log units of each other in “polymerase ribozyme fitness (log ratio)” value: -1.93 for the first, -1.75 for the second.

First: C80U G93A
Second: C73G C101A G120C
The “polymerase ribozyme fitness (log ratio)” value of the first is lower: -1.52 for the first, -0.681 for the second.

C73U U116C and G77C U125A are within 0.2 log units of each other in “polymerase ribozyme fitness (log ratio)” value: -0.498 for the first, -0.685 for the second.

Compared with A74C U96A G117C, C73U C86U U109C G117A G135U is lower in “polymerase ribozyme fitness (log ratio)” value: -5.37 for the first, -6.47 for the second.

First: U78C C123A
Second: C79U A90G G107U
The “polymerase ribozyme fitness (log ratio)” value of the first is higher: 0.196 for the first, -4.88 for the second.

First: A75U A111C
Second: C80G C104U
The “polymerase ribozyme fitness (log ratio)” value of the first is higher: 0.255 for the first, -5.71 for the second.

First: C80A A121G
Second: U78A C97A
The “polymerase ribozyme fitness (log ratio)” value of the first is higher: -2.89 for the first, -4.8 for the second.

A74U U78G U131G and C73U C76U C97U U112A U129A are within 0.2 log units of each other in “polymerase ribozyme fitness (log ratio)” value: -1.29 for the first, -1.35 for the second.

First: C73A C114G
Second: C73U C79G A84G U96C
The “polymerase ribozyme fitness (log ratio)” value of the first is higher: -2.17 for the first, -2.54 for the second.

First: C80U C101U A111U U116A
Second: C73U A119U U126C
The “polymerase ribozyme fitness (log ratio)” value of the first is lower: -4.81 for the first, -0.929 for the second.

Going from A74C U106A G120U C124G to U78C A83U C115A, the “polymerase ribozyme fitness (log ratio)” value falls from 1.17 to -0.234.

First: U78G C89A
Second: A74G G120U G135C
The “polymerase ribozyme fitness (log ratio)” value of the first is lower: -3.29 for the first, 0.597 for the second.

Compared with G77U C82U, C80G A105C U116A C123G is lower in “polymerase ribozyme fitness (log ratio)” value: -0.811 for the first, -7.31 for the second.

Compared with C72U U78G C115U U116C, C73A C101U G122A U131C is higher in “polymerase ribozyme fitness (log ratio)” value: -2.31 for the first, -1.18 for the second.

Going from C73A G107C to C73A G113A U131A, the “polymerase ribozyme fitness (log ratio)” value rises from -4.16 to -1.4.

Going from C80U C88G to C73G C124A U130G, the “polymerase ribozyme fitness (log ratio)” value rises from -1.25 to 1.1.

C72U C89A C104U U125G and C73G G120C G128U are within 0.2 log units of each other in “polymerase ribozyme fitness (log ratio)” value: -1.18 for the first, -1.34 for the second.

Going from G77C C86A G117A to U78A C114G, the “polymerase ribozyme fitness (log ratio)” value rises from -3.88 to -2.43.

First: A74U G110A
Second: U78A U96C
The “polymerase ribozyme fitness (log ratio)” value of the first is lower: -1.3 for the first, -0.338 for the second.

A74G U106A U125A and C73A G93A U131G are within 0.2 log units of each other in “polymerase ribozyme fitness (log ratio)” value: -0.353 for the first, -0.498 for the second.

First: C73U A95U A111U
Second: G77U G122A U130G
The “polymerase ribozyme fitness (log ratio)” value of the first is lower: -2.76 for the first, -0.666 for the second.

First: C76G A90C
Second: U78C A83C C102U
The “polymerase ribozyme fitness (log ratio)” value of the first is higher: -0.998 for the first, -1.78 for the second.

Going from A75G C97U U131A to G77A A84U U112G, the “polymerase ribozyme fitness (log ratio)” value falls from -0.00214 to -2.45.

Going from C79G C94G G113A to U78C C102U, the “polymerase ribozyme fitness (log ratio)” value rises from -5.05 to -2.14.

Compared with C73A A108G U116A C123U, U78C G113A A118G U134G G135U is higher in “polymerase ribozyme fitness (log ratio)” value: -5.63 for the first, -1.82 for the second.

Compared with G77A A95G G120A, G77A U87A A111U G122U is lower in “polymerase ribozyme fitness (log ratio)” value: 0.0766 for the first, -4.12 for the second.

Going from U78A G117C A121C to A75U C76U, the “polymerase ribozyme fitness (log ratio)” value rises from -5.24 to -1.57.

First: C79U C102U G117A
Second: G77A U131A
The “polymerase ribozyme fitness (log ratio)” value of the first is lower: -3.4 for the first, 0.113 for the second.

Compared with A74U G113A U129A, C73G A84U U112C is higher in “polymerase ribozyme fitness (log ratio)” value: -1.94 for the first, 0.269 for the second.

Compared with C73U A103C, A74U U112A G128A is higher in “polymerase ribozyme fitness (log ratio)” value: -3.82 for the first, -1.59 for the second.

First: C80U C114G
Second: U78C U96G
The “polymerase ribozyme fitness (log ratio)” value of the first is lower: -3.48 for the first, -0.935 for the second.

First: C73A C88U C114G A118U
Second: C72U C104A G120A G122U U131A
The “polymerase ribozyme fitness (log ratio)” value of the first is lower: -3.36 for the first, -1.54 for the second.

First: G77C A83C C85U U109C C114G
Second: C73U A83U C104A G110U
The “polymerase ribozyme fitness (log ratio)” value of the first is lower: -6.69 for the first, -4.18 for the second.

Compared with C73U C124G, C73U U133A is lower in “polymerase ribozyme fitness (log ratio)” value: 0.939 for the first, 0.4 for the second.

Going from C79G C89U G117A to U78A A95G, the “polymerase ribozyme fitness (log ratio)” value rises from -4.75 to -0.764.

Going from G77A A90G to C79G A84C, the “polymerase ribozyme fitness (log ratio)” value falls from -0.174 to -2.61.

Compared with C76U U125A, C76A G110A C115A is lower in “polymerase ribozyme fitness (log ratio)” value: -0.353 for the first, -2.95 for the second.

Compared with C73A U81A A90G, C80U G113U is lower in “polymerase ribozyme fitness (log ratio)” value: -0.106 for the first, -3.41 for the second.

First: C79G C89A G127U
Second: C72U U81G U87A C102A
The “polymerase ribozyme fitness (log ratio)” value of the first is higher: -4.91 for the first, -7.12 for the second.

For C73U A121U U133A, the “polymerase ribozyme fitness (log ratio)” value was 2.19.
